The results in this text go back to article PMC3720794.

Targets include MGMT G132R (Homo sapiens, UniProt P16455 1-207, G132R); MGMT G156C (Homo sapiens, UniProt P16455 1-207, G156C); MGMT WT (Homo sapiens, UniProt P16455 1-207).
What all share (experiment): pre-steady-state rapid-quench kinetics

Chain of MGMT G132R (P16455 whole entry G132R): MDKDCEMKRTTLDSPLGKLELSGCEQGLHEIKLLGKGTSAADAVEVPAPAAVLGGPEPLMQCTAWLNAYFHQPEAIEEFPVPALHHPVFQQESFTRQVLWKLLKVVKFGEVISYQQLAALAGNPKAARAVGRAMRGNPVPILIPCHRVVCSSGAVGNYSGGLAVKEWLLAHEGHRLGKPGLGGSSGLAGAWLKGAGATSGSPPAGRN
Chain of MGMT WT (P16455 whole entry): as the sequence (P16455 whole entry G132R) above, with R132G counted along it
Chain of MGMT G156C (P16455 whole entry G156C): as the sequence (P16455 whole entry G132R) above, with R132G, G156C counted along it

B1: PvuIITopD/PvuIIBottom (O6MeG 18 bp duplex) (dsDNA)
DNA 1: GCCCGGCCAGCTGCAGTT
DNA 2: AACTGCAGCTGGCCGGGC
modifications: O6-methylguanine at position 13 of strand 1 (printed as X), paired with C
B1: the Kd (usually the constant that tells how readily two partners part at equilibrium) with MGMT G132R turned out to be 14 ± 3 nM; with MGMT G156C, 240 ± 60 nM; with MGMT WT, 6.2 ± 0.7 nM.
